Measured values reported in patent US20230265179A1 (TWIST BIOSCIENCE, published 2023).
Positions count from the first letter of the chain named.

T1: IL1RL1 (UniProt Q01638 19-328, limits assumed)
T1 construct: SPR analyte
T1 sequence (looked up): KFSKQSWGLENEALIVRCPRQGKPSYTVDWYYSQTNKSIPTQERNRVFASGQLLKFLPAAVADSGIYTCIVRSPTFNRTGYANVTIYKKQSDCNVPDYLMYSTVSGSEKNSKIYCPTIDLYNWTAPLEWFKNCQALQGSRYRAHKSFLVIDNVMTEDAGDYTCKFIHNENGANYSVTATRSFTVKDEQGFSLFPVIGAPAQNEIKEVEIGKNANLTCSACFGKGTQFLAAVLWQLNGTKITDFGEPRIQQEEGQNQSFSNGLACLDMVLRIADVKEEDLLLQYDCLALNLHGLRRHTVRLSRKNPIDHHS

T2: CD40L over-expressed on Expi293 cells (UniProt P29965 1-261, limits assumed)
T2 construct: whole, on cells; also called cytokine over-expressing Expi293 cells
T2 sequence (looked up): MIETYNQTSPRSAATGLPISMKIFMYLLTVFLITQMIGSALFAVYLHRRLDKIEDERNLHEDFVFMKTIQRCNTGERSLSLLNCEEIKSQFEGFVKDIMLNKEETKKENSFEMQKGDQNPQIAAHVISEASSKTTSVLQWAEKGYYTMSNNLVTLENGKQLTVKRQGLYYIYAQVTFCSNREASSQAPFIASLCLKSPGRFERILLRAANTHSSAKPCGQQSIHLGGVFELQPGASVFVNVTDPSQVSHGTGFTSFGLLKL

B1: IL1RL1-84 (Fc fusion, not shown: a dimerising Fc or GST)
VHH: EVQLVESGGGLVQPGGSLRLSCAASGGIISNYHMGWFRQAPGKEREGVAAIYSDGSTYYADRVKGRFTISADNSKNTAYLQMNSLKPEDTAVYYCAARPVRVDDISLPVGFDWGQGTLVTVSS
notes: VHH-Fc on IgG2 Fc
B2: CD40L-159 (antibody, V domains shown)
VH: EVQLLESGGGLVQPGGSLRLSCAASGFDFSDYEMSWVRQAPGKGLEWVSSITSEGGSTYYADSVKGRFTISRNNSKNTLYLQMNSLRAEDTAVYYCAKPDVLFDYWGQGTLVTVSS
VL: DIQMTQSPSSLSASVGDRVTITCRASQDISNYLNWYQQKPGKAPKLLIYGKKNRPSGVPSRFSGSGSGTDFTLTISSLQPEDFATYYCQQGYTRTDIDNTFGQGTKVEIK
notes: IgG2
B3: CD40L-160 (antibody, V domains shown)
VH: B2 VH with N73D
VL: DIQMTQSPSSLSASVGDRVTITCRASQDVSSGVAWYQQKPGKAPKLLIYGKKNRPSGVPSRFSGSGSGTDFTLTISSLQPEDFATYYCQAWDRDTGVFGQGTKVEIK
notes: IgG2
B4: CD40L-161 (antibody, V domains shown)
VH: B2 VH with N73D
VL: DIQMTQSPSSLSASVGDRVTITCRASQDVSSGVAWYQQKPGKAPKLLIYATSTLQSGVPSRFSGSGSGTDFTLTISSLQPEDFATYYCQQSFSVPAFGQGTKVEIK
notes: IgG2
B5: CD40L-158 (antibody, V domains shown)
VH: EVQLLESGGGLVQPGGSLRLSCAASGGYNFRDYMHWVRQAPGKGLEWVSSIGRHGGRTYYADSVKGRFTISRDNSKNTLYLQMNSLRAEDTAVYYCAKDLGQGFDYWGQGTLVTVSS
VL: DIQMTQSPSSLSASVGDRVTITCRASQDVSSGVAWYQQKPGKAPKLLIYQMSHLASGVPSRFSGSGSGTDFTLTISSLQPEDFATYYCSSQDTVTRVLGQGTKVEIK
notes: IgG2
B6: CD40L-170 (antibody, V domains shown)
VH: B5 VH with R31K
VL: B5 VL
notes: IgG2
B7: CD40L-64 (VHH)
VHH: EVQLVESGGGLVQPGGSLRLSCAASGFTFSRYEMGWFRQAPGKEREMVAAIDDGGNTEYADSVKGRFTISADNSKNTAYLQMNSLKPEDTAVYYCASDHYDTDTKSDVYNWGQGTLVTVSS
B8: CD40L-127 (VHH)
VHH: B7 VHH with M47L, A50S, D52T, D53N, N56S, E58Y
B9: CD40L-147 (VHH)
VHH: B7 VHH with M47F, A50T, D52T, D53E, N56A, T57R, E58N
B10: CD40L-156 (antibody, V domains shown)
VH: EVQLLESGGGLVQPGGSLRLSCAASGFMFSWYDMGWVRQAPGKGLEWVSSIDWHGWVTYYADSVKGRFTISRDNSKNTLYLQMNSLRAEDTAVYYCAKAYYGGFDYWGQGTLVTVSS
VL: DIQMTQSPSSLSASVGDRVTITCRASQPIGPDLLWYQQKPGKAPKLLIYDNTNRPSGVPSRFSGSGSGTDFTLTISSLQPEDFATYYCQQSQAAPLTFGQGTKVEIK
notes: IgG2
B11: CD40L-88 (VHH)
VHH: EVQLVESGGGLVQPGGSLRLSCAASGFTFDDYDMGWFRQAPGKEREFVAAIDWSGGSTYYADSVKGRFTISADNSKNTAYLQMNSLKPEDTAVYYCASDHYDTDTKSDVYNWGQGTLVTVSS
B12: CD40L-131 (VHH)
VHH: B11 VHH with F29Y, D30G, D31N, D52Y, W53P, G56R, S57N, T58A
B13: CD40L-87 (VHH)
VHH: B11 VHH with D52S, W53M, G56D, S57D, T58A, Y59A
B14: CD40L-85 (VHH)
VHH: EVQLVESGGGLVQPGGSLRLSCAASGLNLSRLDMGWFRQAPGKEREFVAAVSGSGDDTYYADSVKGRFTISADNSKNTAYLQMNSLKPEDTAVYYCASDHYDTDTKSDVYNWGQGTLVTVSS
B15: CD40L-86 (VHH)
VHH: B11 VHH with F27R, F29L, D30T, D31N, A50V, D52N, W53S, S54G, Y59Q
B16: CD40L-92 (VHH)
VHH: B11 VHH with Y32S, W53A, S57F, Y59E
B17: CD40L-138 (VHH)
VHH: B11 VHH with D30G, D31N, A50V, W53T, S54N, S57L, T58I, Y59A
B18: CD40L-136 (VHH)
VHH: B11 VHH with D30S, D52S, W53M, G56E, S57D, T58A, Y59A
B19: CD40L-148 (VHH)
VHH: B11 VHH with D30G, D31N, F47L, D52S, W53M, G56D, S57D, T58A, Y59A
B20: CD40L-143 (VHH)
VHH: B11 VHH with F27R, D30S, D31S, W53A, S57F, Y59E
B21: CD40L-137 (VHH)
VHH: EVQLVESGGGLVQPGGSLRLSCAASGFTFSRYEMGWFRQAPGKEREFVAAIDDGGNTEYADSVKGRFTISADNSKNTAYLQMNSLKPEDTAVYYCAAVYVSTWGNGYDWGQGTLVTVSS
B22: CD40L-134 (VHH)
VHH: EVQLVESGGGLVQPGGSLRLSCAASGFTFSRYEMGWFRQAPGKEREFVATITEGGARNYADSVKGRFTISADNSKNTAYLQMNSLKPEDTAVYYCAAEIGYYSGGTYFSSEAWGQGTLVTVSS
B23: CD40L-128 (VHH)
VHH: EVQLVESGGGLVQPGGSLRLSCAASGLTFGTHVMGWFRQAPGKEREFVASIDWSGRSTYYADSVKGRFTISADNSKNTAYLQMNSLKPEDTAVYYCAADVWGLGYDWGQGTLVTVSS
B24: CD40L-140 (VHH)
VHH: EVQLVESGGGLVQPGGSLRLSCAASGNIFSHNAMGWFRQAPGKEREFVASMRGSGSTVYADSVKGRFTISADNSKNTAYLQMNSLKPEDTAVYYCAKSVYGDYIFDYWGQGTLVTVSS
B25: CD40L-71 (VHH)
VHH: EVQLVESGGGLVQPGGSLRLSCAASGSIDNIHAMGWFRQAPGKERKFVAVIYSSDGSTLYADSVKGRFTISADNSKNTAYLQMNSLKPEDTAVYYCAAEPYGSGSSLMSEYDWGQGTLVTVSS
B26: CD40L-109 (VHH)
VHH: B25 VHH with D29L, N30S, H32N, K46E
B27: CD40L-83 (VHH)
VHH: B25 VHH with S27R, I28T, D29S, H32Y, K46E, V48I, S53W, S54R, T58S, M108I
B28: CD40L-132 (VHH)
VHH: B25 VHH with N30R, H32N, K46E, V48I, S53W, S54R, T58S, M108I
B29: CD40L-117 (VHH)
VHH: B25 VHH with S27F, D29G, I31Y, K46E, V48I, S53W, S54R, T58S, M108I
B30: CD40L-123 (VHH)
VHH: B25 VHH with S27R, I28T, D29F, N30S, H32Y, K46E
B31: CD40L-110 (VHH)
VHH: B25 VHH with I28S, D29G, N30V, H32N, K46E, V48I, S53W, S54R, T58S, M108I
B32: CD40L-97 (VHH)
VHH: B25 VHH with S27G, I28T, D29F, N30G, I31H, H32Y, K46E, M108I
B33: CD40L-81 (VHH)
VHH: B25 VHH with S27G, D29F, N30G, H32N, K46E, V48I, S53W, S54R, T58S, M108I
B34: CD40L-121 (VHH)
VHH: B25 VHH with S27R, I28T, D29F, N30S, I31T, H32Y, K46E, M108I
B35: CD40L-78 (VHH)
VHH: B25 VHH with S27G, I28T, D29F, N30S, I31V, H32F, K46E, M108I

target: T1, IL1RL1; assay: SPR (Carterra LSA), antibody amine-coupled, 1:1 model;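 note: HC30M sensor chip at 25 °C in HBS-TE, analyte at rising concentrations in buffer containing 0.5 mg/mL BSA, 5 min association then 15 min dissociation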

In the case of B1, the Kd is reported as ≤ 0.0673 nM.

For B1, the koff was ≤ 1e-05 s⁻¹.

Work on B1 yielded a kon of 149000 M⁻¹ s⁻¹.

target: T2, CD40L over-expressed on Expi293 cells; assay: flow cytometry, 100 nM antibody, CD40L-Expi293 vs parent Expi293 cells;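 note: ratio is the mean fluorescence intensity on CD40L-overexpressing Expi293 cells divided by the mean fluorescence intensity on parental Expi293 cells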
Description: All incubations and washes were in buffer containing PBS+1% BSA. MFI Ratio is defined by the mean fluorescence intensity (MFI) of the cytokine over-expressing Expi293 cell over the Expi293 parent cell. […] EC50 was calculated in GraphPad Prism.

In order of falling “100 nM FACS (MFI Ratio)” value:
1. B14  42.6 ratio
2. B11  26 ratio
3. B18  22.4 ratio
4. B7  19.4 ratio
5. B13  18.3 ratio
6. B27  15.7 ratio
7. B19  12.5 ratio
8. B12  12.1 ratio
9. B8  11.9 ratio
10. B15  8.9 ratio
11. B32  8.9 ratio
12. B20  8.3 ratio
13. B35  8.2 ratio
14. B21  7.7 ratio
15. B9  7.4 ratio
16. B22  7.3 ratio
17. B34  6.9 ratio
18. B30  6.7 ratio
19. B16  6.6 ratio
20. B33  6 ratio
21. B25  5.9 ratio
22. B17  5.1 ratio
23. B31  4.9 ratio
24. B26  4.7 ratio
25. B24  4.3 ratio
26. B28  3.9 ratio
27. B29  3.6 ratio
28. B23  1.6 ratio
29. B5  1.5 ratio
30. B10  1.3 ratio
31. B4  0.9 ratio
32. B6  0.6 ratio
33. B2  0.3 ratio
34. B3  0.3 ratio
